Article PMC6277223 (Neoplasia (New York, N.Y.), 2018)

Target: His-SIRT6 (UniProt Q8N6T7 1-355)
Test: pull-down

His-SIRT6, sequence (Q8N6T7 whole entry): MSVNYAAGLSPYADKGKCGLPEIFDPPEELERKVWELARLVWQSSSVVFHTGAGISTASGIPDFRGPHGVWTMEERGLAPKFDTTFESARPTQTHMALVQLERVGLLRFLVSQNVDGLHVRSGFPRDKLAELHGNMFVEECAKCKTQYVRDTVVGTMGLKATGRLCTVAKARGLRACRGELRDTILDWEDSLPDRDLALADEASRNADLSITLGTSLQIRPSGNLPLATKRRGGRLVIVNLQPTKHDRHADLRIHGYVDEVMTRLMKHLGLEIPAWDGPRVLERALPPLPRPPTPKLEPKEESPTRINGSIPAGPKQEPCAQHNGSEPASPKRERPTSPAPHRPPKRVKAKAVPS

B1: GST-PKCζ N-terminus (1-251 aa) (domain or fragment, UniProt Q05513 1-251, looked up)
chain: MPSRTGPKMEGSGGRVRLKAHYGGDIFITSVDAATTFEELCEEVRDMCRLHQQHPLTLKWVDSEGDPCTVSSQMELEEAFRLARQCRDEGLIIHVFPSTPEQPGLPCPGEDKSIYRRGARRWRKLYRANGHLFQAKRFNRRAYCGQCSERIWGLARQGYRCINCKLLVHKRCHGLVPLTCRKHMDSVMPSQEPPVDDKNEDADLPSEETDGIAYISSSRKHDSIKDDSEDLKPVIDGMDGIKISQGLGLQD
Q: Does B1 bind?
A: Result: binds
